The values below come from patent US20240034761A1, “REGENERATION OF MAMMALIAN TISSUES USING SYNTHETIC IMMODULINS” (priority 2022, published 2024).

Ends that are not written are not given here. * marks the point of attachment. Biotin = O=C1N[C@H]2[C@H](CS[C@H]2CCCCC(=O)*)N1

Assay [1] addresses pure recombinant CD44 protein (Abcam). The assay can be described thus: plate assay, pH 5.2, peptide pre-bound with 10 ug/well HMW-hyaluronan (CD44 capture through HA), anti-CD44 mAb/TMB detection.
The target is the same in assay [2]. Kind of assay: plate assay, pH 5.2, peptide pre-bound with 10 ug/well LMW-hyaluronan (CD44 capture through HA), anti-CD44 mAb/TMB detection.
Assay [3] has the same target. Kind of assay: plate assay, pH 7.4, peptide pre-bound with 10 ug/well HMW-hyaluronan (CD44 capture through HA), anti-CD44 mAb/TMB detection.
Assay [4] has the same target. Kind of assay: plate assay, pH 7.4, peptide pre-bound with 10 ug/well LMW-hyaluronan (CD44 capture through HA), anti-CD44 mAb/TMB detection.
Assay [5] shares this target. Kind of assay: plate assay, biotin-peptide on streptavidin plate, pH 5.2, no hyaluronan (CONTROL), 100 ng/well CD44, anti-CD44 mAb/TMB detection.
Assay [6] shares this target. The assay can be described thus: plate assay, biotin-peptide on streptavidin plate, pH 7.4, no hyaluronan (CONTROL), 100 ng/well CD44, anti-CD44 mAb/TMB detection.
For assay [7] the target is unchanged. Kind of assay: plate assay, pH 5.2, peptide pre-bound with 1.5 ug/well HMW-hyaluronan (CD44 capture through HA), anti-CD44 mAb/TMB detection; reference set to 100.
The target is the same in assay [8]. The assay can be described thus: plate assay, pH 7.4, peptide pre-bound with 1.5 ug/well HMW-hyaluronan (CD44 capture through HA), anti-CD44 mAb/TMB detection; reference set to 100.

Chain of pure recombinant CD44 protein (Abcam) (P16070 whole entry): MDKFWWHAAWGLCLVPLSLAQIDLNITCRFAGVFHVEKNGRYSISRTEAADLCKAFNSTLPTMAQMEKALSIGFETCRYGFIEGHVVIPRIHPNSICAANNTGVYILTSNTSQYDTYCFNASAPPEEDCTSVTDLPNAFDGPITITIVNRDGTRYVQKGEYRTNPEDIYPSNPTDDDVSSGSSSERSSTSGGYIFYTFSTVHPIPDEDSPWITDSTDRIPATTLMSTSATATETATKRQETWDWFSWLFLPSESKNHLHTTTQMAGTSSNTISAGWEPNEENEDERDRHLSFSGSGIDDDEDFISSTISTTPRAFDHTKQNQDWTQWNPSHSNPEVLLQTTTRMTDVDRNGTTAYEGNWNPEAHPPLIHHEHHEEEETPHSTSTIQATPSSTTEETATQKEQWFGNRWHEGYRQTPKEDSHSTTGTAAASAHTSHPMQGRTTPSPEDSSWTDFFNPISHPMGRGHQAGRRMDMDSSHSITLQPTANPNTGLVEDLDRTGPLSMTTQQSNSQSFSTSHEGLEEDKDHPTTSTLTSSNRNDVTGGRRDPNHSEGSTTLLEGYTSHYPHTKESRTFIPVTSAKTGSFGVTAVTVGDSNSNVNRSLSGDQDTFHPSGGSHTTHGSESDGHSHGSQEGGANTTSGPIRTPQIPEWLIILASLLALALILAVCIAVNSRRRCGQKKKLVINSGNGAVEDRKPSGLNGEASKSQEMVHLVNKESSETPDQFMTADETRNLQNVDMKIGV

B1: immX3AVD peptide (N-terminally biotinylated, bound to streptavidin-coated plate) (peptide)
peptide: Biotin-KKGFYKKKQCRPSKGRKRGFCWAVD
modifications: cysteine pairing not given here
Regarding B1, the CD44 immunoreactivity (AU) (AU (immX3AVD + 1.5 ug HMW-HA = 100)) in assay [1] came out at 105; in assay [2], 103; in assay [3] it was 101; in assay [4], 103; in assay [5] it was 13.2; in assay [6], 19.6. For the same molecule, the CD44 immunoreactivity (AU) (AU (immX3AVD + 1.5 ug HMW-HA = 100)) in assay [7] and in assay [8] was 100 in each case.
